Source: patent US20040191240A1 (published 2004)

Molecular target: T1, amino-terminally FLAG-tagged human p75 (human, UniProt P08138 29-427)
T1 construct: also called FLAG-tagged p75; FLAG-p75; not shown: FLAG tag at the amino terminus
T1 sequence: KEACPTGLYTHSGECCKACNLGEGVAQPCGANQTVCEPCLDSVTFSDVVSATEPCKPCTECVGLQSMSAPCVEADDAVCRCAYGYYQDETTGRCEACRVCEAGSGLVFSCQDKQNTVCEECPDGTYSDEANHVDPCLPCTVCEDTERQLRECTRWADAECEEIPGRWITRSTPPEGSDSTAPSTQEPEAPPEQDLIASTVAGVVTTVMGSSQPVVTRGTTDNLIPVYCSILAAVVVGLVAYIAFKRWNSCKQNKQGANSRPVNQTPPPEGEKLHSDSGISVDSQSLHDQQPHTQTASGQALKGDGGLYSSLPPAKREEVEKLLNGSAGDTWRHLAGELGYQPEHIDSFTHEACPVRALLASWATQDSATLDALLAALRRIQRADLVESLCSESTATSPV
Experiment: competition: Pep5 at several concentrations against 1 uM GST-Rho GDI for immunoprecipitated p75

- binding result: binds
B1: Pep5 (peptide)
peptide: CFFRGGFFNHNPRYC
notes: Chemically synthesized 15-residue peptide; also called peptide ligand to the p75 HD
